Measured values from patent US20260139007A1 (SANFORD BURNHAM PREBYS MEDICAL DISCOVERY INSTITUTE, published 2026).
Numbered stars: 1 amine (or outer) side, 2 acyl side, 3 side chain; on linkers, the order of the positions; unused ones are H or OH. Bridge positions count the residues as written; N and C are the ends. Square brackets hold non-standard residues; d marks the D form. Side chains are listed from the residue outwards. Ends that are not written are not given here. * marks the point of attachment. γGlu = O=C(O)[C@H](CCC(=O)[*:2])N[*:1]; βAsp = O=C(O)[C@H](CC(=O)[*:2])N[*:1]; Palmitoyl = CCCCCCCCCCCCCCCC(=O)*; Lauroyl = CCCCCCCCCCCC(=O)*; Octanoyl = CCCCCCCC(=O)*; Dodecyl = CCCCCCCCCCCC*; βAla = NCCC(=O)O

Key:
[1] = molecular target: T1, EphA4 Fc (human EphA4 Fc, #CJ75, Novoprotein, or mouse EphA4 Fc, #641-A4, R&D Systems/BioTechne) (human or mouse, UniProt P54764 20-547); assay: competition ELISA, inhibition of ephrin-A5 AP binding to immobilized EphA4 Fc
T1 construct: extracellular domain; bought reagents; also called EphA4 extracellular domain fused to the Fc portion of an antibody; not shown: Fc portion of an antibody

[2] = molecular target: T1, EphA4 Fc (human EphA4 Fc, #CJ75, …); assay: competition ELISA, inhibition of ephrin-A5 AP binding to immobilized EphA4 Fc, with 40 mg/mL delipidated HSA
[3] = molecular target: FLAG-tagged EphA4 stably expressed in immortalized cells (HEK-EphA4 cells); assay: cell-based or functional assay
[4] = molecular target: T1, EphA4 Fc (human EphA4 Fc, #CJ75, …); assay: competition ELISA, ephrin-A5 AP on immobilized EphA4 Fc, same experiments
[5] = molecular target: T1, EphA4 Fc (human EphA4 Fc, #CJ75, …); assay: competition ELISA, ephrin-A5 AP on immobilized EphA4 Fc

T1 sequence (P54764 20-547): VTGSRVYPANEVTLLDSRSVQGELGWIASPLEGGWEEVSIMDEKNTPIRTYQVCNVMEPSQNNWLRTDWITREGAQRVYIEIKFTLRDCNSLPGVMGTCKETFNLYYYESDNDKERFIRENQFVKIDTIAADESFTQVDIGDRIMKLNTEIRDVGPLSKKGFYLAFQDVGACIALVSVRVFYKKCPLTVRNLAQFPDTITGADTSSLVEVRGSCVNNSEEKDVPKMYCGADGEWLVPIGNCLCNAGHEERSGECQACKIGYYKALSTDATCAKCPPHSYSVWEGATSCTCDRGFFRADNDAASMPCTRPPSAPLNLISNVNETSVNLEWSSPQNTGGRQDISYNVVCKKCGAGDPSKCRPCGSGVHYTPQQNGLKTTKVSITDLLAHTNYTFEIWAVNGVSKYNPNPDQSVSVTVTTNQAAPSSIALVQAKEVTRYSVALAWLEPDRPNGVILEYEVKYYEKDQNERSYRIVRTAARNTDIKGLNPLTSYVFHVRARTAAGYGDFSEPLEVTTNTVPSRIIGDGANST

Binder | IC50 [1] | IC50 [2] | other results
XPYCVYRXSWSCXXX (β-alanine at 1 and 8; disulfide bond Cys4-Cys12 (Cyc (4,12)); three 6-aminohexanoic acid (Ahx) residues and propargyl-glycine (Pra) after Cys12; 30 kDa methoxy-PEG on Pra through a triazole (click chemistry); free C-terminal acid (-OH)) [APY-d3-PEG4] | – | – | IC50 for inhibition of EphA4 tyrosine phosphorylation (pY596) induced by ephrin-A5 Fc in HEK-EphA4 cells, ELISA of cell lysates [3]: ~700 nM; fold loss of potency against APY-d3, EphA4 tyrosine phosphorylation in HEK-EphA4 cells [3]: ~2.5 fold
XPYCVYRXSWSCXXK (β-alanine at 1 and 8; disulfide bond Cys4-Cys12 (cyclic); 30 kDa methoxy-PEG joined through linker1 at the C-terminus (amide formation with 30 kDa methoxy-PEG succinimidyl carboxymethyl ester on precursor 1, βAPYCVYRβASWSCβAβAK-NH2, SEQ ID NO: 36), also called βAPYCVYRβASWSC-linker1-PEG) [APY-d3-PEG1] | 180 nM | – | –
[βAla]PYCVYR[βAla]SWSCGGGSK([γGlu-γGlu-Palmitoyl])G-NH2 (disulfide 4-12; N-terminus assumed; SMILES CCCCCCCCCCCCCCCC(=O)N[C@@H](CCC(=O)N[C@@H](CCC(=O)NCCCC[C@H](NC(=O)[C@H](CO)NC(=O)CNC(=O)CNC(=O)CNC(=O)[C@@H]1CSSC[C@H](NC(=O)[C@H](Cc2ccc(O)cc2)NC(=O)[C@@H]2CCCN2C(=O)CCN)C(=O)N[C@@H](C(C)C)C(=O)N[C@@H](Cc2ccc(O)cc2)C(=O)N[C@@H](CCCNC(=N)N)C(=O)NCCC(=O)N[C@@H](CO)C(=O)N[C@@H](Cc2c[nH]c3ccccc23)C(=O)N[C@@H](CO)C(=O)N1)C(=O)NCC(N)=O)C(=O)O)C(=O)O, also called peptide 20) [compound 20] | 190 nM | – | –
[βAla]PYCVYK([Gly-Dodecyl])[βAla]SWSC-NH2 (disulfide 4-12, also called peptide 9; βAPYCVYK(lauryl-G)βASWSC-NH2) [compound 9] | 590 nM | – | fold decrease in potency against APY-d3 similarly modified with a C8 lipid [5]: > 10 fold
XPYCVYRXSWSCGGKG (β-alanine at 1 and 8; lauroyl on the side chain of the Lys of the C-terminal GGKG; C-terminal amide; disulfide bond Cys4-Cys12 (cyclic), also called peptide 12) [compound 12] | 240 nM | 920 nM | –
[βAla]PYCVYK([γGlu-Palmitoyl])[βAla]SWSC-NH2 (disulfide 4-12; N-terminus assumed; SMILES CCCCCCCCCCCCCCCC(=O)N[C@@H](CCC(=O)NCCCC[C@@H]1NC(=O)[C@H](Cc2ccc(O)cc2)NC(=O)[C@H](C(C)C)NC(=O)[C@@H](NC(=O)[C@H](Cc2ccc(O)cc2)NC(=O)[C@@H]2CCCN2C(=O)CCN)CSSC[C@@H](C(N)=O)NC(=O)[C@H](CO)NC(=O)[C@H](Cc2c[nH]c3ccccc23)NC(=O)[C@H](CO)NC(=O)CCNC1=O)C(=O)O, also called peptide 17; βAPYCVYK(palmitoyl-γE)βASWSC-NH2) [compound 17] | 2300 nM | – | –
[βAla]PYCVYK(Lauroyl)[βAla]SWSC-NH2 (disulfide 4-12; N-terminus assumed; SMILES CCCCCCCCCCCC(=O)NCCCC[C@@H]1NC(=O)[C@H](Cc2ccc(O)cc2)NC(=O)[C@H](C(C)C)NC(=O)[C@@H](NC(=O)[C@H](Cc2ccc(O)cc2)NC(=O)[C@@H]2CCCN2C(=O)CCN)CSSC[C@@H](C(N)=O)NC(=O)[C@H](CO)NC(=O)[C@H](Cc2c[nH]c3ccccc23)NC(=O)[C@H](CO)NC(=O)CCNC1=O, also called peptide 8; βAPYCVYK(lauroyl)βASWSC-NH2) [compound 8] | 390 nM | – | fold decrease in potency against APY-d3 similarly modified with a C8 lipid [5]: > 10 fold
[βAla]PYCVYK([βAsp-Lauroyl])[βAla]SWSC-NH2 (disulfide 4-12; N-terminus assumed; SMILES CCCCCCCCCCCC(=O)N[C@@H](CC(=O)NCCCC[C@@H]1NC(=O)[C@H](Cc2ccc(O)cc2)NC(=O)[C@H](C(C)C)NC(=O)[C@@H](NC(=O)[C@H](Cc2ccc(O)cc2)NC(=O)[C@@H]2CCCN2C(=O)CCN)CSSC[C@@H](C(N)=O)NC(=O)[C@H](CO)NC(=O)[C@H](Cc2c[nH]c3ccccc23)NC(=O)[C@H](CO)NC(=O)CCNC1=O)C(=O)O, also called peptide 10; βAPYCVYK(lauroyl-βD)βASWSC-NH2) [compound 10] | 110 nM | – | –
XPYCVYRXSWSCGGKG (β-alanine at 1 and 8; palmitoyl-γGlu-γGlu on the side chain of the Lys of the C-terminal GGKG; C-terminal amide; disulfide bond Cys4-Cys12 (cyclic), also called peptide 19) [compound 19] | 160 nM | – | –

Second part, led by results:

IC50 [1] | IC50 [2] | Binder | other results
34 nM | 110 nM | XPYCVYRXSWSCGGKG (β-alanine at 1 and 8; octanoyl on the side chain of the Lys of the C-terminal GGKG; C-terminal amide; disulfide bond Cys4-Cys12 (cyclic), also called peptide 7) [compound 7] | –
15 nM | – | XPYCVYRXSWSCXK (β-alanine at 1 and 8; disulfide bond Cys4-Cys12 (cyclic); 30 kDa methoxy-PEG joined at the C-terminus through an oxime linkage (APY-d3-βAla-glyoxyl with methoxy-PEG-CONH(CH2)2-ONH2), also called βAPYCVYRβASWSC-linker3-PEG) [APY-d3-PEG3] | –
42 nM | 130 nM | [βAla]PYCVYK([Gly-octanyl])[βAla]SWSC-NH2 (disulfide 4-12, also called peptide 6; βAPYCVYK(octanyl-G)βASWSC-NH2) [compound 6] | –
34 nM | 100 nM | [βAla]PYCVYK(Octanoyl)[βAla]SWSC-NH2 (disulfide 4-12; N-terminus assumed; SMILES CCCCCCCC(=O)NCCCC[C@@H]1NC(=O)[C@H](Cc2ccc(O)cc2)NC(=O)[C@H](C(C)C)NC(=O)[C@@H](NC(=O)[C@H](Cc2ccc(O)cc2)NC(=O)[C@@H]2CCCN2C(=O)CCN)CSSC[C@@H](C(N)=O)NC(=O)[C@H](CO)NC(=O)[C@H](Cc2c[nH]c3ccccc23)NC(=O)[C@H](CO)NC(=O)CCNC1=O, also called peptide 4; βAPYCVYK(octanoyl)βASWSC-NH2) [compound 4] | –
83 nM | – | XPYCVYRXSWSCXXK (β-alanine at 1 and 8; disulfide bond Cys4-Cys12 (cyclic); 30 kDa methoxy-PEG joined through linker2 at the C-terminus (amide formation with 30 kDa methoxy-PEG-(CH2)5COO-NHS on precursor 1, βAPYCVYRβASWSCβAβAK-NH2, SEQ ID NO: 36), also called βAPYCVYRβASWSC-linker2-PEG) [APY-d3-PEG2] | –
70 nM | – | [βAla]PYCVYK[βAla]SWSC-NH2 (disulfide 4-12; N-terminus assumed; SMILES CC(C)[C@@H]1NC(=O)[C@@H](NC(=O)[C@H](Cc2ccc(O)cc2)NC(=O)[C@@H]2CCCN2C(=O)CCN)CSSC[C@@H](C(N)=O)NC(=O)[C@H](CO)NC(=O)[C@H](Cc2c[nH]c3ccccc23)NC(=O)[C@H](CO)NC(=O)CCNC(=O)[C@H](CCCCN)NC(=O)[C@H](Cc2ccc(O)cc2)NC1=O, also called peptide 3; βAPYCVYKβASWSC-NH2) [compound 3] | fold decrease in potency (IC50) against APY-d3 [4]: ~2 fold
77 nM | 1370 nM | XPYCVYRXSWSCGGKG (β-alanine at 1 and 8; myristoyl-γGlu-γGlu on the side chain of the Lys of the C-terminal GGKG; C-terminal amide; disulfide bond Cys4-Cys12 (cyclic), also called peptide 16) [compound 16] | –
26 nM | 75 nM | [βAla]PYCVYK(Octanoyl)[βAla]SWSCGGRG-NH2 (disulfide 4-12; N-terminus assumed; SMILES CCCCCCCC(=O)NCCCC[C@@H]1NC(=O)[C@H](Cc2ccc(O)cc2)NC(=O)[C@H](C(C)C)NC(=O)[C@@H](NC(=O)[C@H](Cc2ccc(O)cc2)NC(=O)[C@@H]2CCCN2C(=O)CCN)CSSC[C@@H](C(=O)NCC(=O)NCC(=O)N[C@@H](CCCNC(=N)N)C(=O)NCC(N)=O)NC(=O)[C@H](CO)NC(=O)[C@H](Cc2c[nH]c3ccccc23)NC(=O)[C@H](CO)NC(=O)CCNC1=O, also called peptide 5) [compound 5] | –
84 nM | – | [βAla]PYCVYK([γGlu-Lauroyl])[βAla]SWSC-NH2 (disulfide 4-12; N-terminus assumed; SMILES CCCCCCCCCCCC(=O)N[C@@H](CCC(=O)NCCCC[C@@H]1NC(=O)[C@H](Cc2ccc(O)cc2)NC(=O)[C@H](C(C)C)NC(=O)[C@@H](NC(=O)[C@H](Cc2ccc(O)cc2)NC(=O)[C@@H]2CCCN2C(=O)CCN)CSSC[C@@H](C(N)=O)NC(=O)[C@H](CO)NC(=O)[C@H](Cc2c[nH]c3ccccc23)NC(=O)[C@H](CO)NC(=O)CCNC1=O)C(=O)O, also called peptide 11; βAPYCVYK(lauroyl-γE)βASWSC-NH2) [compound 11] | –
